Results reported in paper PMC4575918, “Regulation of p53 oligomerization by Ras superfamily protein RBEL1A” (Genes & Cancer, 2015).

Key:
[1] = biological target: T1, purified recombinant full-length RBEL1A (UniProt Q3YEC7-1 1-729, purification (1): glycosylated (larger molecular mass); purification (2): unglycosylated or less glycosylated); experiment: cross-linking; purified p53 (315-360) incubated with purified RBEL1A or BSA (1:1 or 2:1 molar ratio) 1 hour at 4 C, then glutaraldehyde 5 minutes at 4 C; SDS-PAGE, anti-p53 (FL-393) blot; settings: both partners purified
T1 construct: RBEL1A, Ras superfamily GTPase, full length; also called recombinant RBEL1A; RBEL1A (1); source: purified recombinant protein
T1 sequence (looked up): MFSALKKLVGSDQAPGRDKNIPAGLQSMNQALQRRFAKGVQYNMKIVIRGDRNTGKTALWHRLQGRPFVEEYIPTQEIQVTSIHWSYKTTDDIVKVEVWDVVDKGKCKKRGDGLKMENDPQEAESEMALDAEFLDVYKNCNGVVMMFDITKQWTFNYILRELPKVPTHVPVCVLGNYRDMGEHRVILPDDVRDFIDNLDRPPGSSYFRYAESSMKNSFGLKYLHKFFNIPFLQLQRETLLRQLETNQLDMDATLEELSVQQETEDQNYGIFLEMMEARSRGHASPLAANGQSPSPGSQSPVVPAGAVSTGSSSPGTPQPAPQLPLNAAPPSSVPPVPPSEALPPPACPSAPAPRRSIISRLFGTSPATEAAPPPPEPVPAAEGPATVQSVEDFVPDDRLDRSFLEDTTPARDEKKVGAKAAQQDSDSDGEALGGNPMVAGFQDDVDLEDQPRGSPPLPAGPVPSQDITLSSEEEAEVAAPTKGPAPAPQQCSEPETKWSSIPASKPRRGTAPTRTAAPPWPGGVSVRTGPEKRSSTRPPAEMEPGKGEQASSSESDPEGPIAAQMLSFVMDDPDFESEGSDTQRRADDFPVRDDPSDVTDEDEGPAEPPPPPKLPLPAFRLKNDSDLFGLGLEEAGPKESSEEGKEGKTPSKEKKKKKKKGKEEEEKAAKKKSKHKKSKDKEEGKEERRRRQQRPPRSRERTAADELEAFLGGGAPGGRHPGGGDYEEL

[2] = biological target: the molecule itself; experiment: as above

B1: purified recombinant p53 tetramerization domain (residues 315-360) (domain or fragment, UniProt P04637 315-360, looked up)
chain: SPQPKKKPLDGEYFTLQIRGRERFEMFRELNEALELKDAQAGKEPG
notes: p53 tumor suppressor, residues 315-360 (tetramerization domain); also called p53-Oligo-D; recombinant p53 (315-360); source: purified recombinant polypeptide
B1 was tested, and the binding result [1] was “binds” and the “stoichiometry N” value [2] was 4.
